Biological target: hSlo, human pore-forming α-subunit of the high conductance calcium-activated potassium channel (maxi-K) (human) (UniProt Q12791)
Assay: cell-based or functional assay

Sequence of UniProt Q12791 (Q12791 whole entry): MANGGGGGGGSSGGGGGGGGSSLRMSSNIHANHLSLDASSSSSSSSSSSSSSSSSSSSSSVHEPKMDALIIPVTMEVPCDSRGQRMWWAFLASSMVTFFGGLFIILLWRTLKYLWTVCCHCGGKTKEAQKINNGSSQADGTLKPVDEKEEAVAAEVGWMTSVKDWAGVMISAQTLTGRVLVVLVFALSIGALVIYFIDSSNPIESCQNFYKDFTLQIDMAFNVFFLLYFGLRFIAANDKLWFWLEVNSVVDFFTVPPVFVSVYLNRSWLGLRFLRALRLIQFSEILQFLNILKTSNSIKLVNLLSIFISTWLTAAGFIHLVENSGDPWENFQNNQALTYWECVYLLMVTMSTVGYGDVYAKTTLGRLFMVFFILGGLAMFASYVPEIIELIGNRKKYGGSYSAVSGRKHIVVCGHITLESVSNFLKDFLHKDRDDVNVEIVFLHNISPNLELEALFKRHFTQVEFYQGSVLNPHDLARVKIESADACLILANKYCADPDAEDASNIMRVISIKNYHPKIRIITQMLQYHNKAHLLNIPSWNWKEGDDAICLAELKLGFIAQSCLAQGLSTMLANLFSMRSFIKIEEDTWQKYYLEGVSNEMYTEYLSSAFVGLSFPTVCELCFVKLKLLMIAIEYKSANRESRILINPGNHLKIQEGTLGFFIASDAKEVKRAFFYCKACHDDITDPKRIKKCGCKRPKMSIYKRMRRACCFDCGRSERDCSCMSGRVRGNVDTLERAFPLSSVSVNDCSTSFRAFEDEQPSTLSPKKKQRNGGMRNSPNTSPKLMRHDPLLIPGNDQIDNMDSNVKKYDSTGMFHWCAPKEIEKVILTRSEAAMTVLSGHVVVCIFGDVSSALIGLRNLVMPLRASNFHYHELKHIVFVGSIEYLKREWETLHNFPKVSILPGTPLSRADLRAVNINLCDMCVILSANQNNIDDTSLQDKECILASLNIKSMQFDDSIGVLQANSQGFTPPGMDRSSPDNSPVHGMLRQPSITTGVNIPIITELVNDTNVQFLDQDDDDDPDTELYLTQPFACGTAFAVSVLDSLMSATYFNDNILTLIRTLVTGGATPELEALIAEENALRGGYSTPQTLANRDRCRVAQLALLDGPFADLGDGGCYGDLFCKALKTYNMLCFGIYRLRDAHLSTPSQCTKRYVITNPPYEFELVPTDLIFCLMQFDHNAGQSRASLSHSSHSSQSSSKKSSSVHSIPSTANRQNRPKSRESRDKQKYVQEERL

Substance | block of hSlo current (whole cell patch) at 300 nM toxin [%]
iberiotoxin (from UniProt P24663 1-37) (peptide) | > 90
charybdotoxin (from UniProt P13487 23-59) (peptide) | > 90

— patent US20110171205A1
